These results are taken from article PMC6453562.

What all share (assay): native gel or EMSA
(In general: Mobility shift assays separate free from complexed probe on a gel.)

The target in assay [1] is B41 SOSIP.v4.1-His trimer (HIV-1 (B41)).
Assay [2] concerns the target BG505 SOSIP.664 trimer (HIV-1 (BG505)) (UniProt Q2N0S6).
Assay [3] has as its target BG505 SOSIP.664-His trimer (HIV-1 (BG505)) (UniProt Q2N0S6).

In general, stoichiometry N refers to the number of molecules, sites or subunits per partner or assembly. In assay [1], B41 SOSIP.v4.1-His trimer (complex) had a stoichiometry N of 3.

In the case of “BG505 SOSIP.664 trimer (from UniProt Q2N0S6 1-860; Q2N0S6 1-860) (complex)”, in assay [2], the stoichiometry N came out at 3.

On to “BG505 SOSIP.664-His trimer (from UniProt Q2N0S6 1-860; Q2N0S6 1-860) (complex)”, for which the stoichiometry N in assay [3] turned out to be 3.
